{
  "source": "paper PMC9437053",
  "molecular_target": "ribosomal protein S1 (Escherichia coli, UniProt P0AG67 1-557)",
  "test": "EMSA; natural S1; preferred over SBS-Up; EMSA: 1 uM biotin-RNA, 1x EMSA/Gel-shift binding buffer (Beyotime), 20 C, 30 min; native PAGE in ice-cold 0.5x TBE, 170 V; salt and pH not stated",
  "data": [
    {"binder": "UCGGCUCGUAUAAUGUGUGGAACGCUUUUACUGUUUUAAGGAGAUAUACC (ssRNA)", "note": "[SBS-Down-RNA]", "values": [
      {"measurement": "binding result", "result": "binds"}
    ]}
  ]
}
